Laboratory results from the DeepSol protein solubility set.

assay: soluble on expression in E. coli; label from the status in PepcDB or PDB records

| Sequence | soluble on expression in E. coli |
| --- | --- |
| MGSDKIHHHHHHMKISNISYFNFRNLENTSIDLSDKINVFYGKNAQGKTSLLEAIYYSSTGISFKTKKTSEMIKYNFDEFISSISYQDYIANNKISVRFKNIAGAKKEFFFNKKRISQTDFYGKINIIAYIPEDIILINGSPKHRRDFFDIEISQIDKEYLTNLKNYDKLLKIRNKYLKENKRNSEEFAIYEKEFIKYASYIIFTRIEYVKSLSIILNLQYRKLFNIAQELNLRYETSLDKTAKVTIEMIQESLKREISQKKYQEDKYKFSLVGPHKDDYKFLLNGHEAKISASQGEKKSIIFSLKLSEIEIIKKNRKENPVVIIDDITSYFDEDRRKSILDFFNKRDIQVLISSTDKLDIEAKNFYVEKGIIKDESNINK | not soluble |
| MGSDKIHHHHHHMKISVSKNDLENALRYLQAFLDKKDASSIASHIHLEVIKEKLFLKASDSDIGLKSYIFTQSSDKEGVGTINGKKFLDIISCLKDSNIILETKDDSLAIKQNKSSFKLPMFDADEFPEFPVIDPKVSIEVNAPFLVDAFKKIAPVIEQTSHKRELAGILMQFDQKHQTLSVVGTDTKRLSYTQLEKISIHSTEEDISCILPKRALLEILKLFYENFSFKSDGMLAVIENEMHTFFTKLIDGNYPDYQKILPKEYISSFTLGKEEFKESIKLCSSLSSTIKLTLEKNNALFESLDSEHSETAKTSVEIEKGLDIEKAFHLGVNAKFFLEALNALGTTQFVLRCNEPSSPFLIQESLDEKQSHLNAKISTLMMPITL | not soluble |
| MGSDKIHHHHHHMKKAIGILCYPSVGGSGVVATELGMKLADRGHDVHFITSSIPFRLTEYRPNITVHLVEVNQYSVFKYPPYDITLASKVAEVIDLFDLDIIHAHYAVPHAVCAELGRNMAKKKGVGVVTTLHGTDITVIGQDLEMQPAIRYGIESSDAVTAVSESLALETNITLNGQYAIEVIPNSIDESMYYPMRDERLKRHYGIEPDEIVVIHISNFRPVKRIDDTIAAFAIASKDRAMRLLLVGDGPEMGQTRRRAKELGIYDKIIFAGKQEHVAQLLAISDIHLLLSEKEAFGLVVLEAMAVGVPSVVSSAGGLPEVIQDGKTGFIVPTYDVKTAADRIGKLADDAALREELAEEGIRDTRRRFDSNQVVRAYELLYERVCAQYENA | not soluble |
| MGSDKIHHHHHHMKKLLNTLYVTSENSYLGLDGENVVVYDDKNEIGRLPLHNLEAIISFGYRGTSPALMGACADRNISLCYLTPQGKFLARVSGKVKGNVVLRKQQFQSSSEDIKCLEIAKNCILGKVYNSRWVLERAIRDHSMQIDVDKVKKASIKLKEFLDYIQNSQSMNQLRGYEGEAASIYFGVFDELILQQKKDFFFQGRNRRPPLDNVNAMLSFTYTLLTTQITSALEVVGLDPYVGYMHTERPGRVSLSLDLIEELRAVMADRFVLSLINKKIVNGKSFTKKENGAVLMDTDIRKKLLSEWQNKKKEIITHPYLNEKVEWGMVPFVQAMLLARYLRGDLDEYPVFLWK | not soluble |
| MGSDKIHHHHHHMKKRFIYHDEKSNKFWWIDYEGDSLAVNYGKVGSIGKFQTKEFDNEEQCLKEASKLIAAKMKKGYQEDPKFNFMDRYYFDDEEIGLHVKTSHPNFQCHFTDPLYMCCWDEESPFGSDEGADALNVLENSLRKEPDLDCADFPQMLIETMWGMKYIAMDSILEEDVRAQLLVDEMSTIQSNMITYATAFGQIKVMGKISHKLKKMGLNALARHQLTAKILQWGDGQDSPILQKMIDDLTAFPHEN | not soluble |
| MGSDKIHHHHHHMKKYQRLAEQIREQIASGVWQPGDRLPSLREQVASSGMSFMTVGHAYQLLESQGRIIARPQSGYYVAPHPVCRSVATAAHVIRDEAVDINTYIFEMLQASRDTSVVPFASAFPDPRLFPLPQLNRSLAQVSKTATAMSVIENLPPGNAELRYAIARRYAQQGITVSPDEIVITAGALEALNLSLQAVTAPGDWVVVENPCFYGALQALERLRLKALSIPTDVKEGIDLMALEQALQEYPVKACWLMTNSQNPLGFTLSAEKKARLVALLTHHNVTLIEDDVYSELYFGREKPLPAKAWDRDDTVLHCSSFSKCLVPGFRIGWVAGGSHARQIQRLQLMSTLSTSSPMQLALVDYLSTRRYDAHLRRLRRQLAERKQQAWQTLLRHLPAEVKIHHNDSGYFLWLELPEQLDAGELSAKALEHLISIAPGKMFSTSGAWTRFFRFNTAWHWGEREEQAVKQLGSLIREMLSAKSLV | not soluble |
| MGSDKIHHHHHHMKLKTKTMEWSGNSLKLLDQRKLPFIEEYVECKTHEEVAHAIKEMIVRGAPAIGVAAAFGYVLGLRDYKTGSLTDWMKQVKETLARTRPTAVNLFWALNRMEKVFFENADRENLFEILENEALKMAYEDIEVNKAIGKNGAQLIKDGSTILTHCNAGALATVDYGTALGVIRAAVESGKRIRVFADETRPYLQGARLTAWELMKDGIEVYVITDNMAGWLMKRGLIDAVVVGADRIALNGDTANKIGTYSLAVLAKRNNIPFYVAAPVSTIDPTIRSGEEIPIEERRPEEVTHCGGNRIAPEGVKVLNPAFDVTENTLITAIITEKGVIRPPFEENIKKILEV | not soluble |
| MGSDKIHHHHHHMKLPANQEKNQPVPVVKPSSTLEEINQNAAGIDLGSGEHWVCVPPDRADKNVRRFGCFTPDLIAMADWLKECRINTVAMEATGVYWIPVFQVLEAKGFEVKLVNAHHVKTVPGRKTDVLDCQWLQKLHTYGLLSGSFRPEDQVCVLRSYIRQRDTLIKSASAHIQRMQKALIQMNLHLHKVISDVTGLTGMKIIKAIVAGEQDPQVLASLKDPHIKSSTADIAASLTGDYRREHLFVLQQELTLYEIYQQQIIAVDAEIEKCLAYA | not soluble |
| MGSDKIHHHHHHMKLRRNMKWNDEGKRIVEMLKLRTPPVGVKFFQEKYEPERAFRPSKYGIKMAVCQAIAFARYIGRTVVLEAEDFGCPPAMLLYGVAEYEGSLKDILVGAQWLKDESCEVAEQKLPLGKYKSFVFGDMTKMAEEPEAVMIFGTPAQIGRLIQAATYFGGAVKANLTAKTASCAEALFPALRGEVAIAVPGAGDRVFAAIQETEMIFAMPYAWTGKILEGLENAGRGANISYPPSPFLMFTPRFPKHYRETAEKFKLV | not soluble |
| MGSDKIHHHHHHMKMVTKLSIVLGLIATLVLSGCQKHDTHEEMPHYAATTPFREDTSILEPYVCQIRAIRHIEVRSLEKGYLTHIFIDEGQWVKKGQPMFKIMPNVYQAELLTAEAEAQNVNIEYLNTKALADKNIVSANELALAKAKLDKANAQVNLAKTHLGFTDIRAPFDGITDHLAVRIGSLLDEDDLLTELSDIAHLWVYFNVPEAKYLDFIRREKGKTNEKVQLRMANGEIYEHTGVIETIVGDFYNTSGNIQFRALFENPDRVLRHGQTGTILMTVPYPNAMLIPQKATFEIMDKIYLYVVNKEEKVEQRLIQIEAELPHMFIVKSGVNDGERILIEGMRKVSPGDKVMIDLKPPQEVRSELMKLYTE | not soluble |
| MGSDKIHHHHHHMKNGKISESVLKRSVLKQLHTKSDRILFKPAVGEDCAVISMQAGGKTKLVTATQTFTLDVSDKHVRANCAVYDALNNIYAMGADPVGIELALLVPTTENEAVLRETVRAIDAVCEKAGIVVLGGHTQVSRAVKNIVVTVTAIGEAYEQALTPSSAAAPGMDVIVTGYVGLEGTAILANEKRTELETRFSKAFIDKSAAYIDHISTAMEAASAIGAGVAAIHDASQGGIFGALWDMAEASGIGLDIDLKKLPIRQDTIEISEFFDINPYKLLSGGSLIIIAADGTRVVRELEKTGQNAVIVGATTDSNDRVLISGEERRFLETAQTDEIYKVFN | not soluble |
| MGSDKIHHHHHHMKNIHSIEFYTGSKEELLPDFEKDFPYIASRAELDKYIGGYVPWHWHRTVELFYMESGSIEYDTPGGKILFPAGSGGMINPNVLHMTKAISQREKNIQLLHIFDVSLLAGEQGSRIEQKYIAPVITAPQIEVIPLFPGNAEEERILKLLAASFRLSSDEFGYEIKLREALTEIWLMLFELSCSMREKKGEHNKSNDKIKLMMIYIHEHYREKISILELAAAAYLSERECYRVFHDCLHMTPVEYITTYRLQIACQMLAKGQEPITVISHECGLGSSSYFGKVFREYAYCSPTEYRKKWQNSDM | not soluble |
| MGSDKIHHHHHHMKNIIGILGVFILAISCSGGKKESADAGLELTEDSVVYLLADNVTLGIKALFPFIDKDGHEYLTFQNQLEPEICVYDLQSGEFVKSIFFDREGANGVGMFGGYHIIDFDEIYLPSLQQSKVFVMEESGKKKREIITEKTDDGIPLLPFGAITFAYRPIYFNNGKMYIPQTVNMRLGNKVMEKSPVYVVVDTVKNVLSPFSIKFPPIMSSDDVTKPSLGNELSYSCCLNDKDQFVFSFFFDEDIYVVSLQDGEMKKIKVKSRYIDKPAIKENPPQDFDGAMKASSEIPCYGNLIYDKYRKVYYRFVYLKADLDGEKNYLNIWQYGRKSFSIMILNEDFDVIGETRFPDFTYISTLHYIGKDGLYLSDSHYKNPSFDENKLRFRRFKLVHYNKK | not soluble |
| MGSDKIHHHHHHMKNLLITVFFLSLTLQLSAETGGSNAVIVEKTTASPAEKTPVYWQKMADGMSQALIKHFWGANFKGYENRFYFNYGSDLSNMTTNHYWPQAHAMDVMVDAYMRTGSKQYLNIYPLWWEGAPKFNFAGREEDPWWNVFVDDMEWIALAQIRMFESTKNTKYLKKARQTYDDWVWSTWGPEDEAPWFGGITWKTDVAKSKNACSNGPAALIAARLYNFYDAMGKKAGKPKQAYLNEAIKIYTWEKNNLFDRQTGAVYDSMNGEGKITKWVFSYNSGTFLGAAHELYKITGDKQYLADAVKAANFVIDHLSTNEGVLSDAEGGDGGLFHGIFFRYFVKLINDPALDSANYNKFRDYITHCATVMAEQGVNQKTMLYSGRWRKAPADDESVGLTSHLTGCMLMEAMCVLKHR | not soluble |
| MGSDKIHHHHHHMKNLYAKVIVGGSPISKSNFKLSNINGRAILPYNSGQYHDRYAIYEETIAYEARSQNPNTVISESIIAVLKVFYKSKKRHPDTNNITKSIFDGIEKSGIIVNDAQITRIIIEEYYDMINPRFELELFAESKFKMKYSILKKEEEDEPILYDPPSNKKRLITKTQKPKKSAQNGTITCSICGKKVTNDNIIWANKGTTALCKNCLKKSF | not soluble |
| MGSDKIHHHHHHMKPENLVKAVKILDNHIPKELDDPNSIAQAAEKLELKNFSQSELVNGFNLFFAQRFEDRLQIFNRITPPVIGDLMALVTEKLGLAKQEIFDPEIVFPDLIFQFASHFGQSIYGRAADQIIDASLKKLANIYRFDFTDSDHEKIVVSRILGIDFAAEMNHFFKASNLKVGESAILLVNNSDLQSNSFAEILKKNKNMALLAIIELPTKLFKHSEMRSSLLILRRKVDNEKVTAQVLLAQIPELSNKEDFSKFVSQLETWKKENL | not soluble |
| MGSDKIHHHHHHMKPGSHLFSPISFQESTPLYRQLYERVRRAISVGLLFPGDRLPSARMLAKELGVARGTIEQAYSLLIAEGYLQAHGQAGTRVNPDLPSASLPVAEAPVSPSAPDAEQQILWRPSQLLPFQMGVPAFDAFPRKLWARLGARYLRSMQLPDLDYPAPYGLPALRNAIASYLQVSRGIDCTANQVFITSGWRANLQLATLALLKSGQRVWVEDPGYPPTRQLLSQSGLCPIAVSVDREGINVERGIAQANDASMAVVTPAHQSPLSMSLSLPRRQALLQWATAQNAWIMEDDYDGEYRYISRPLPALASLDRHGRVLYAGTFSKVLFPGIRLAYLVVPQSQVAAFEHINRIFFASASPTMTQSIVASFITEGHFARHIQRTRRLYAERRTATITVLQGILGNRIRIDSQPGGMHLVLRLPDKFSDRQLADRLLAQGIAVQPLSRWAVSGSGDNALLVSFTNCTTVMESERLAALILAECEQHGNSLA | not soluble |
